# Assay results reported in the nanobody polyreactivity screen of Harvey et al. (2022).
# Test: yeast display, Sf9 membrane polyspecificity reagent, FACS + sequencing; frameworks hold sequencing errors
# How it was run: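 Nanobodies came from a synthetic yeast display library in Saccharomyces cerevisiae BJ5465, induced with galactose for 36–48 hours and stained for 1 hour at 4 °C with 10% biotinylated, detergent-solubilized Sf9 membrane reagent. Cells were enriched on streptavidin microbeads and then FACS-sorted, with low and high (top ~1%) gates set on anti-HA fluorescence for expression and streptavidin fluorescence for reagent binding. Each polyreactivity label reflects the gate a clone came from. Genes were amplified by colony PCR, sequenced by MiSeq 2 × 250 and filtered by CDR length.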
row,Sequence,polyreactivity (PSR sort gate)
1,QVQLVESGGGLVQAGGSLRLSCAASGRTFSSNAMGWYRHAPGKERELVAAISFRGGRTFYADSVKGRFTISRDNAKNTGFLQMNSLKPEDSAVYYCNAVPETRSYDYWGQGTQVTVSS,high polyreactivity
2,QVQLVESGGGLVQAGGSLRLSCAASGRTFSSNAMGWYRQAPGKEREFVAVISSGGSTYYADSVKGRFTISRDNAKNTVYLQMNSLKPEDTAVYYCAAAVGPSGYYYESDYWGQGTQVTVSS,high polyreactivity
3,QVQLVESGGGLVQAGGSLRLSCAASGRTFSSNAMGWYRQAPGKERELVAAITYTGTSTYYADSVKGRFTISRDYAKNTVYLQMNSLKPEDTAVYYCAALYVQGTHTYGYWGQGTQVTVSS,high polyreactivity
4,QVQLVESGGGLVQAGGSLRLSCAASGRTFSSNTMGWYRQAPGKERELVAAIDWSGGRTYYADSVKGRFTISRDNAKNTVYLQLNSLKPEDTEVYYCARSRSYWGIVYGRYDYWGQGTQVTVSS,high polyreactivity
5,QVQLVESGGGLVQAGGSLRLSCAASGRTFSTYAMGWYRQAPGKERELVAGISRGGGSTYYADSVKGRFTISRDNAKNTVYLQMNSLKPEDTAVYYCAAKRPQYYVQYGYWGQGTQVTVSS,high polyreactivity
6,QVQLVESGGGLVQAGGSLRLSCAASGRTFSVNAMGWSRQAPGKERELVAAITYSGGGTYYADSVKGRFTISRDNAKNPVYLQMNSLKPEDTAVYYCAAPVYTWYHRYDYWGQGTQVTVSS,high polyreactivity
7,QVQLVESGGGLVQAGGSLRLSCAASGRTFSVYAMGWYRQAPGKERELVAAINRGGSTNYADSVKGRFTISRDNAKNTVYLQMNSLKPEDTAVYYCAATYYWGRKAGFDYWGQGTQVTVSS,low polyreactivity
8,QVQLVESGGGLVQAGGSLRLSCAASGRTFSVYAMGWYRQAPGKERELVATISWGGGITYYADSVKGRFTISRDNAKNTVYLQMNSLKPEDTAVYYCAAKRSLYPYYYWGQGTQVTVSS,high polyreactivity
9,QVQLVESGGGLVQAGGSLRLSCAASGRTFSVYTMGWYRQAPGKERELVASINWSGGRTYYADSVKGRFTISRDNAKYSVYFQMISLKPEDTAVYYCAATGWRTLFDYWGQGTQVTVSS,high polyreactivity
10,QVQLVESGGGLVQAGGSLRLSCAASGRTFSVYTMGWYRQAPGKERELVASISRSGGRTYYADSVKGRFTISRDNAKNTVYLQMNSLKPADTAVYYCAARWYSASALKYYYWGQGTQVTVSS,high polyreactivity
11,QVQLVESGGGLVQAGGSLRLSCAASGRTFSWNTMGWYRQAPGKERELVAAITRVGTTYYADSVKGRFTISRDNAKNTVYLQMNSLKPEDTGVYYCNARKVRYPYRWYDYWGQGTQVTVSS,high polyreactivity
12,QVQLVESGGGLVQAGGSLRLSCAASGRTFSWYAMGWYRQAPGKEREFVATISASGGSTYYADSVKGRFTISRDNAKNTVYLQMNSLKPEDTAVYYCAADRSIRFFSPANYDYWGQGTQVTVSS,high polyreactivity
13,QVQLVESGGGLVQAGGSLRLSCAASGRTFSWYAMGWYRQAPGKERELVAAITWSGGSTYYADSVKGRFTISRDNAKNTVYLQMNSLKPEDTAVYYCNALRYSNRRYYSTGPHDYWGQGTQVTVSS,high polyreactivity
14,QVQLVESGGGLVQAGGSLRLSCAASGRTFSWYTMGWYRQAPGNERELVAVINYSGGSTYYADSVKGRFTISRDNAKNTVYLQMTSLKPEDTAVYYCAARNVVTGYRYDYWGQGTQVTVSS,high polyreactivity
15,QVQLVESGGGLVQAGGSLRLSCAASGRTFSYNAMGWYRQAPGKERELVAAISSGGSTYYADSVKGRFTISRDNAKNTVYLQMNSLKPEDTAVYYCAADSPSVWGYRYDYDYWGQGTQVTVSS,low polyreactivity
16,QVQLVESGGGLVQAGGSLRLSCAASGRTFSYNAMGWYRQAPGKERELVATISWGGGSTYYADSVKGRFTISRDNAKNTVYLQMNSQKPEDTAVFYCARVGWYAYLIDRDYWGQGSQVTVSS,high polyreactivity
17,QVQLVESGGGLVQAGGSLRLSCAASGRTFSYNAMGWYRQAPGKERELVAVISASGGSTYYADSVKGRFTISRDNAKNTVYLQMNSLKPEDTAVYYCAKRRSPVERYDYWGQGTQVTVSS,low polyreactivity
18,QVQLVESGGGLVQAGGSLRLSCAASGRTFSYYAMGWYRQAPGKERELVAAISWSGGSTYYADSVKGRFTISRDNAKNTVYLQMNSLKPEDTAVYYCNAPGYVWKGYDYWGQGTQVTVSS,high polyreactivity
19,QVQLVESGGGLVQAGGSLRLSCAASGRTFSYYAMGWYRQAPGKERELVAAITDSGDSTYYADSVKGRFTISRDNAKNTVYLQMNSLKPEDTAVYYCAAEIYSYYRFYWYDYWGQGTQVTVSS,high polyreactivity
20,QVQLVESGGGLVQAGGSLRLSCAASGRTFSYYAMGWYRQAPGKERELVAAITSSGGRTYYADSVKGRFTISRDTAKKSFYFQMYSLKPEDSAVYFFNTYTGQRDFSPFDSWGQGTQVTVTS,high polyreactivity
21,QVQLVESGGGLVQAGGSLRLSCAASGRTFSYYAMGWYRQAPGKERELVAAITSSGTGTYYADSVKGRFTISRDNAKNTVYLQMNSLKPEDTAVYYCAVLTTSKSRVKLYYWGQGTQVTVSS,high polyreactivity

row,Sequence,polyreactivity (PSR sort gate)
1,QVQLVESGGGLVQAGGSLRLSCAASGRTFSYYAMGWYRQAPGKERELVASIRKSGASTYYADSVKGRFTISRDNAKNTVYLQMNSLKPEDTAVYYCNTAGWSFYSGRYDYWGQGTQVTVSS,high polyreactivity
2,QVQLVESGGGLVQAGGSLRLSCAASGRTFSYYAMGWYRQAPGKERELVAYITSSGGSTYYADSVKGRFTISRDNAKNTVYLQMNSLKPEDTAVYYCATRGGSRARGMDYWGQGTQVTVSS,high polyreactivity
3,QVQLVESGGGLVQAGGSLRLSCAASGRTFSYYTMGWSRQAPGKERELVAAISWSGGNTYYADSVKGRFTISRDNAKNTVYLQMNSLKPEDTAVYYCAARSVYGSYSGYDYWGQGTQVTVSS,high polyreactivity
4,QVQLVESGGGLVQAGGSLRLSCAASGRTFSYYTMGWYRQAPGKERELVARISNRGTNTYYADSVKGRFTISRDNAKNTVYLQMNSLKPEDTAVYYCNAAFSVRHLYRYDYWGQGTQVTVSL,low polyreactivity
5,QVQLVESGGGLVQAGGSLRLSCAASGRTFTFNAMGWYRQAPGKERELVARIDWRGITYADSVKGRFTISRDNAKNTVYLQMNSLKPEDTAVYYCAAVWLHISYYGKYDYWGQGTQVTVSS,low polyreactivity
6,QVQLVESGGGLVQAGGSLRLSCAASGRTFTGNVMGWYRQAPGKERELVAAISRSGTSTYYADSVKGRFTISRDNAKNTVYLQMNSLKPEDTAVYYCAARRTAGYRSGEYDYWGQGTQVTVSS,high polyreactivity
7,QVQLVESGGGLVQAGGSLRLSCAASGRTFTGYAMGWYRQAPGKEREFVAAITQRGGSTYYADSVKGRFTISRDNAKNTVYLQMNSLKPEDTAVYYCAASYLTWKRRYDYWGQGTQVTVSS,high polyreactivity
8,QVQLVESGGGLVQAGGSLRLSCAASGRTFTIYARGWYRQAPGKERELVAAITSGGSTYYADSVKGRFTISRDNAKNTVYLQMNSLKPEDTAVYYCDRGYAVSLVSRYDYWGQGTQVTVSS,low polyreactivity
9,QVQLVESGGGLVQAGGSLRLSCAASGRTFTKNAMGWYRQAPGKERELVAAISISGGSTYYADSVKGRFTISRDNAKNTVYLQMYSLKPEDTAVYYCAADVVTYLSYTLDYWGQGTQVTVSS,low polyreactivity
10,QVQLVESGGGLVQAGGSLRLSCAASGRTFTKYAMGWYRQAPGKERELVAGITRRGGNTYYADSVKGRFTISRDNAKNTVYLQMNSLKPEDTAVYYCAKGYDFLRYDYWGQGTQVTVSS,high polyreactivity
11,QVQLVESGGGLVQAGGSLRLSCAASGRTFTLYAMGWYRQAPGKERELVAAIRWSGSSTYYADSVKGRFTISRDNAKNTVYLQMNSLKPEDTAVYYCAADRAYRRFSQGAYSPWILKYGYWGQGTQVTVSS,high polyreactivity
12,QVQLVESGGGLVQAGGSLRLSCAASGRTFTNNVMGWYRQAPGKERELVAAITSGGTNYADSVKGRFTISRDNAKNTVYLQMNSLKPEDTAVYYCATDYYDEVTIGYDYWGQGTQVTVSS,low polyreactivity
13,QVQLVESGGGLVQAGGSLRLSCAASGRTFTNYAMGWYRQAPGKERELVASISNAGSTNYADSVKGRFTISRDNAKNTVYLQMNSLNPEDTAVYYCAADFFAGTQRTFDYWGQGTQVTVSS,high polyreactivity
14,QVQLVESGGGLVQAGGSLRLSCAASGRTFTPNAMGWYRQAPGKDRELVAAITSTGGRTYYADSVKGRFTISRDNAKNTVYLQMNSLKPDDTAVYYCAVSYRYLRKYGYWGQGTQVTVSS,high polyreactivity
15,QVQLVESGGGLVQAGGSLRLSCAASGRTFTQYAMGWYRQAPGKERELVAAIDYRGSRTYYADSVKGRFTISRDNAKNTVYLQMNSLKPEDTAFYYCNTVHRFGTYDYWGQGTQVTVSS,high polyreactivity
16,QVQLVESGGGLVQAGGSLRLSCAASGRTFTRNAMGWYRQAPGKERELVASITNGVSTNYADSVKGRFTISRDNAKNTVYLQMNSLKPEDTAVYYCNKGPLISYAYRYYQPYDYWGQGTQVTVSS,low polyreactivity
17,QVQLVESGGGLVQAGGSLRLSCAASGRTFTRYAMGWYRQAPGKERELVAAISWSGGSTYYADSVKGRFTISRDNAKNSVYLQMNSLKPEDTAVYYCNAYYYYPEFNYWGLGTQVTVSS,high polyreactivity
18,QVQLVESGGGLVQAGGSLRLSCAASGRTFTRYAMGWYRQAPGKERELVASISNGGNTYYADSVKGRFTISRDYAKNTVYLQMNSLKPEDTAVYYCAAKWKNSRPDWRGYWGQGTQVTVSS,high polyreactivity
19,QVQLVESGGGLVQAGGSLRLSCAASGRTFTRYAMGWYRQAPGKERELVASITTGGRTYYADSVKGRFTISRDNAKNTVYLQMNSLKPEDTAVYYCAARTYGGFEYWGQGTQVTVSS,high polyreactivity
20,QVQLVESGGGLVQAGGSLRLSCAASGRTFTRYAMGWYRQAPGKERELVATINSSGDRTYYADSVKGRFTISRDNAKNTVYLQMNSLKPEDTAVYYCAKRWSPYLYGYWGQGTQVTVSS,high polyreactivity
